Target: T1, Recombinant human IgG1 Fc (R&D systems) (human, UniProt P01857-1 100-330 = IgG part)
T1 construct: domain: Fc; Negative control surface in the Biacore experiment; also called hIgG1-Fc
Assay: SPR (Biacore T200)

B1: Recombinant human laminin-α4 (R&D systems) (ligand, UniProt Q16363-2 826-1816, looked up)
chain: QVSMMFDGQSAVEVHSRTSMDDLKAFTSLSLYMKPPVKRPELTETADQFILYLGSKNAKKEYMGLAIKNDNLVYVYNLGTKDVEIPLDSKPVSSWPAYFSIVKIERVGKHGKVFLTVPSLSSTAEEKFIKKGEFSGDDSLLDLDPEDTVFYVGGVPSNFKLPTSLNLPGFVGCLELATLNNDVISLYNFKHIYNMDPSTSVPCARDKLAFTQSRAASYFFDGSGYAVVRDITRRGKFGQVTRFDIEVRTPADNGLILLMVNGSMFFRLEMRNGYLHVFYDFGFSGGPVHLEDTLKKAQINDAKYHEISIIYHNDKKMILVVDRRHVKSMDNEKMKIPFTDIYIGGAPPEILQSRALRAHLPLDINFRGCMKGFQFQKKDFNLLEQTETLGVGYGCPEDSLISRRAYFNGQSFIASIQKISFFDGFEGGFNFRTLQPNGLLFYYASGSDVFSISLDNGTVIMDVKGIKVQSVDKQYNDGLSHFVISSVSPTRYELIVDKSRVGSKNPTKGKIEQTQASEKKFYFGGSPISAQYANFTGCISNAYFTRVDRDVEVEDFQRYTEKVHTSLYECPIESSPLFLLHKKGKNLSKPKASQNKKGGKSKDAPSWDPVALKLPERNTPRNSHCHLSNSPRAIEHAYQYGGTANSRQEFEHLKGDFGAKSQFSIRLRTRSSHGMIFYVSDQEENDFMTLFLAHGRLVYMFNVGHKKLKIRSQEKYNDGLWHDVIFIRERSSGRLVIDGLRVLEESLPPTEATWKIKGPIYLGGVAPGKAVKNVQINSIYSFSGCLSNLQLNGASITSASQTFSVTPCFEGPMETGTYFSTEGGYVVLDESFNIGLKFEIAFEVRPRSSSGTLVHGHSVNGEYLNVHMKNGQVIVKVNNGIRDFSTSVTPKQSLCDGRWHRITVIRDSNVVQLDVDSEVNHVVGPLNPKPIDHREPVFVGGVPESLLTPRLAPSKPFTGCIRHFVIDGHPVSFSKAALVSGAVSINSCPAA
notes: also called laminin 4A chain; laminin A4 (α4) chain
  binding result: no binding (tested: 5-175 nM)
